Test results from US20130052176, “APTAMER FOR NGF AND USE THEREOF” (SHIONOGI & CO., LTD, published 2013).

Experiments:
Conditions in all cases: tags: human NGF; chain copies: 2
[1] = biological target: T1, NGF (nerve growth factor) (human, UniProt P01138 P01138:122-241); assay: cell_activity; neurite outgrowth, NGF 0.38 nM; TF-1 IC50 0.146 nM
Description: (§1) The neurite outgrowth inhibitory activity of the aptamer obtained in Example 1 was evaluated by using Neuroscreen-1 cell, which is a subclone of PC-12 cells.
(§2) The cells (2500 cells per well) were cultured for one day in an RPMI-1640 medium containing 2.5% horse serum and 1.25% fetal bovine serum in a 96 well flat-bottom plate coated with collagen type IV. […] Two days later, the cytoplasm and nuclei were stained using Cellomics Neurite Outgrowth Kit (manufactured by Thermo Scientific), and neurite length per cell was measured by Cellomics ArrayScan VTI (manufactured by Thermo Scientific). With the neurite length per cell obtained by the addition of NGF alone as inhibitory activity 0%, and that of the cell obtained by NGF free culture for 2 days as inhibitory activity 100%, the inhibitory activity of the aptamer was calculated from the neurite length per cell obtained by culturing with the addition of NGF and the aptamer in mixture. When the inhibitory activity was 0% or below, ‘0%’ is indicated.

[2] = biological target: T1, NGF (nerve growth factor); assay: cell_activity; neurite outgrowth, NGF 0.38 nM; TF-1 IC50 0.069 nM
Description: as §1, §2

[3] = biological target: T1, NGF (nerve growth factor); assay: cell_activity; neurite outgrowth, NGF 0.38 nM; TF-1 IC50 0.122 nM
Description: as §1, §2

[4] = biological target: T1, NGF (nerve growth factor); assay: cell_activity; neurite outgrowth, NGF 0.38 nM; TF-1 IC50 0.285 nM
Description: as §1, §2

[5] = biological target: T1, NGF (nerve growth factor); assay: cell_activity; neurite outgrowth, NGF 0.38 nM; TF-1 IC50 0.130 nM
Description: as §1, §2

[6] = biological target: T1, NGF (nerve growth factor); assay: cell_activity; neurite outgrowth, NGF 0.38 nM; TF-1 IC50 0.055 nM
Description: as §1, §2

[7] = biological target: T1, NGF (nerve growth factor); assay: cell_activity; neurite outgrowth, NGF 0.38 nM; TF-1 IC50 0.319 nM
Description: as §1, §2

[8] = biological target: T1, NGF (nerve growth factor); assay: cell_activity; neurite outgrowth, NGF 0.38 nM; TF-1 IC50 0.100 nM
Description: as §1, §2

[9] = biological target: T1, NGF (nerve growth factor); assay: cell_activity; neurite outgrowth, NGF 0.38 nM; TF-1 IC50 0.156 nM
Description: as §1, §2

[10] = biological target: T1, NGF (nerve growth factor); assay: cell_activity; neurite outgrowth, NGF 0.38 nM; TF-1 IC50 0.104 nM
Description: as §1, §2

[11] = biological target: T1, NGF (nerve growth factor); assay: cell_activity; neurite outgrowth, NGF 0.38 nM; TF-1 IC50 0.107 nM
Description: as §1, §2

[12] = biological target: T1, NGF (nerve growth factor); assay: cell_activity; neurite outgrowth, NGF 0.38 nM; TF-1 IC50 0.064 nM
Description: as §1, §2

[13] = biological target: T1, NGF (nerve growth factor); assay: cell_activity; neurite outgrowth, NGF 0.38 nM; TF-1 IC50 0.159 nM
Description: as §1, §2

[14] = biological target: T1, NGF (nerve growth factor); assay: cell_activity; neurite outgrowth, NGF 0.38 nM; TF-1 IC50 0.074 nM
Description: as §1, §2

[15] = biological target: T1, NGF (nerve growth factor); assay: cell_activity; neurite outgrowth, NGF 1.1 nM; TF-1 IC50 1.2 nM
Description: as §1, §2

[16] = biological target: T1, NGF (nerve growth factor); assay: cell_activity; neurite outgrowth, NGF 1.1 nM; TF-1 IC50 4.2 nM
Description: as §1, §2

[17] = biological target: T1, NGF (nerve growth factor); assay: cell_activity; neurite outgrowth, NGF 1.1 nM; TF-1 IC50 1.5 nM
Description: as §1, §2

[18] = biological target: T1, NGF (nerve growth factor); assay: cell_activity; neurite outgrowth, NGF 1.1 nM; TF-1 IC50 1.7 nM
Description: as §1, §2

[19] = biological target: T1, NGF (nerve growth factor); assay: cell_activity; neurite outgrowth, NGF 1.1 nM; TF-1 IC50 7.0 nM
Description: as §1, §2

T1 sequence (P01138 122-241, one chain of several): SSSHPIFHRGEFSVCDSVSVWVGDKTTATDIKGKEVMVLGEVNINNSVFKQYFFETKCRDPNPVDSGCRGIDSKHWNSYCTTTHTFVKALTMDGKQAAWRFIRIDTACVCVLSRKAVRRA

B1: aptamer ID 26(45) (ssRNA)
RNA: GGGAGACUCGCCAGAGUUGAAAGAAACCCAAAUAAGUGUGCGCAC
modifications: 5' and 3' idT; 2'-OMe purines except ribo g3,g19,a20,a26; 2'-OMe c7,c9,c11,c12,u17,u33,c45; other pyrimidines 2'-F
B1 was tested, and the IC50 [1] was 0.238 nM.

B2: aptamer ID 26(48) (ssRNA)
RNA: GGGAGACUCGCCAGAGUUGAAAGAAACCCAAAUAAGUGUGCGCAC
modifications: 5' and 3' idT; 2'-OMe purines except ribo g3,g19,a20,a26; 2'-OMe c7,c11,c12,u17,u18,u33,u37,c45; other pyrimidines 2'-F
Binder B2 has an IC50 [2] of 0.053 nM.

B3: aptamer ID 26(56) (mixed)
RNA: GGGAGACUCGCCAGAGUUGAAAGAAACCCAAAUAAGUGUGCGCAC
modifications: 5' and 3' idT; 2'-OMe purines except ribo g3,g19,a20,a26; 2'-F c27,c28,c41,c43; dC29,dU39; other pyrimidines 2'-OMe
Work on B3 yielded an IC50 [3] of 0.154 nM.

B4: aptamer ID 26(67) (ssRNA)
RNA: GGGAGACUCGCCAGAGUUGAAAGAAACCCAAAUAAGUGUGCGCAC
modifications: 5' PEG40TS2 via ssH linker; 3' idT; 2'-F all pyrimidines; 2'-OMe purines except ribo g3,g19,a20,a26
B4 showed an IC50 [4] of 0.153 nM.

B5: aptamer ID 26(57) (mixed)
RNA: GGGAGACUCGCCAGAGUUGAAAGAAACCCAAAUAAGUGUGCGCAC
modifications: 5' and 3' idT; 2'-OMe purines except ribo g3,g19,a20,a26; 2'-F c27,c28,u39,c43; dC29,dC41; other pyrimidines 2'-OMe
Work on B5 yielded an IC50 [5] of 0.213 nM.

B6: aptamer ID 26(60) (ssRNA)
RNA: GGGAGACUCGCCAGAGUUGAAAGAAACCCAAAUAAGUGUGCGCAC
modifications: 5' and 3' idT; 2'-OMe purines except ribo g3,g19,a20 and 2'-F a26; 2'-F c27,c28,c29,u39,c41,c43; other pyrimidines 2'-OMe
B6 showed an IC50 [6] of 0.105 nM.

B7: aptamer ID 26(70) (ssRNA)
RNA: GGGAGACUCGCCAGAGUUGAAAGAAACCCAAAUAAGUGUGCGCAC
modifications: 5' PEG80TS4 via ssH linker; 3' idT; 2'-F all pyrimidines; 2'-OMe purines except ribo g3,g19,a20,a26
With B7 the IC50 [7] was 0.126 nM.

B8: aptamer ID 26(46) (ssRNA)
RNA: GGGAGACUCGCCAGAGUUGAAAGAAACCCAAAUAAGUGUGCGCAC
modifications: 5' and 3' idT; 2'-OMe purines except ribo g3,g19,a20,a26; 2'-OMe c7,u8,c11,c12,u17,u33,c45; other pyrimidines 2'-F
Work on B8 yielded an IC50 [8] of 0.097 nM.

B9: aptamer ID 26(24) (mixed)
RNA: GGGAGACUCGCCAGAGUUGAAAGAAACCCAAAUAAGUGUGCGCAC
modifications: as 26(19) (5' and 3' idT; 2'-F pyrimidines; 2'-OMe purines except ribo g3,g19,a20,a26) but c11 is dC
B9 gave an IC50 [9] of 0.226 nM.

B10: aptamer ID 26(19) (ssRNA)
RNA: GGGAGACUCGCCAGAGUUGAAAGAAACCCAAAUAAGUGUGCGCAC
modifications: 5' and 3' idT; 2'-F all pyrimidines; 2'-OMe all purines except ribo g3,g19,a20,a26
For B10, the IC50 [10] was less than 0.01 nM.

B11: aptamer ID 26(58) (mixed)
RNA: GGGAGACUCGCCAGAGUUGAAAGAAACCCAAAUAAGUGUGCGCAC
modifications: 5' and 3' idT; 2'-OMe purines except ribo g3,g19,a20,a26; 2'-F c27,c28,u39,c41; dC29,dC43; other pyrimidines 2'-OMe
Work on B11 yielded an IC50 [11] of 0.143 nM.

B12: aptamer ID 26(65) (mixed)
RNA: GGGAGACUCGCCAGAGUUGAAAGAAACCCAAAUAAGUGUGCGCAC
modifications: 5' PEG80TS4 via ssH linker; 3' idT; 2'-OMe purines except ribo g3,g19,a20,a26; 2'-F c28,c41,c43; dC27,dC29; other pyrimidines 2'-OMe
In the case of B12, the IC50 [12] is reported as 0.091 nM.

B13: aptamer ID 26(23) (mixed)
RNA: GGGAGACUCGCCAGAGUUGAAAGAAACCCAAAUAAGUGUGCGCAC
modifications: as 26(19) (5' and 3' idT; 2'-F pyrimidines; 2'-OMe purines except ribo g3,g19,a20,a26) but c9 is dC
In the case of B13, the IC50 [13] is reported as 0.229 nM.

B14: aptamer ID 26(47) (ssRNA)
RNA: GGGAGACUCGCCAGAGUUGAAAGAAACCCAAAUAAGUGUGCGCAC
modifications: 5' and 3' idT; 2'-OMe purines except ribo g3,g19,a20,a26; 2'-OMe c7,c11,c12,u17,u33,u37,c45; other pyrimidines 2'-F
Binder B14 has an IC50 [14] of 0.065 nM.

B15: aptamer ID 57(1) (mixed)
mixed: GGGAUAAAAAUAGAGTUUGATAAACACCUGUAUUAAAACCC
modifications: as ID 57 (5' cholesterol; 3' idT; dT16,dT21; 2'-F other pyrimidines and a37,a38; 2'-OMe purines except ribo a4,a7,g30) plus PS between 15 and 16
Work on B15 yielded an IC50 [15] of less than 3 nM.

B16: aptamer ID 57(4) (mixed)
mixed: GGGAUAAAAAUAGAGTUUGATAAACACCUGUAUUAAAACCC
modifications: as ID 57 (5' cholesterol; 3' idT; dT16,dT21; 2'-F other pyrimidines and a37,a38; 2'-OMe purines except ribo a4,a7,g30) plus PS between 20 and 21
Binder B16 has an IC50 [16] of less than 3 nM.

B17: aptamer ID 57(3) (mixed)
mixed: GGGAUAAAAAUAGAGTUUGATAAACACCUGUAUUAAAACCC
modifications: as ID 57 (5' cholesterol; 3' idT; dT16,dT21; 2'-F other pyrimidines and a37,a38; 2'-OMe purines except ribo a4,a7,g30) plus PS between 19 and 20
B17 gave an IC50 [17] of less than 3 nM.

B18: aptamer ID 57(5) (mixed)
mixed: GGGAUAAAAAUAGAGTUUGATAAACACCUGUAUUAAAACCC
modifications: as ID 57 (5' cholesterol; 3' idT; dT16,dT21; 2'-F other pyrimidines and a37,a38; 2'-OMe purines except ribo a4,a7,g30) plus PS between 21 and 22
B18 showed an IC50 [18] of less than 3 nM.

B19: aptamer ID 57(9) (mixed)
mixed: GGGAUAAAAAUAGAGTUUGATAAACACCUGUAUUAAAACCC
modifications: as ID 57 (5' cholesterol; 3' idT; dT16,dT21; 2'-F other pyrimidines and a37,a38; 2'-OMe purines except ribo a4,a7,g30) plus PS between 29 and 30
In the case of B19, the IC50 [19] is reported as less than 3 nM.
